Reference: patent US20260055172A1

Target: human complement protein C1q (human) (UniProt P02745)
Test: ELISA, 10 µg/ml human C1q, detection with HRP-conjugated anti-C1q antibody, antibody concentration varied

human complement protein C1q (human), sequence (P02745 23-245 limits assumed, chain 1 of 3): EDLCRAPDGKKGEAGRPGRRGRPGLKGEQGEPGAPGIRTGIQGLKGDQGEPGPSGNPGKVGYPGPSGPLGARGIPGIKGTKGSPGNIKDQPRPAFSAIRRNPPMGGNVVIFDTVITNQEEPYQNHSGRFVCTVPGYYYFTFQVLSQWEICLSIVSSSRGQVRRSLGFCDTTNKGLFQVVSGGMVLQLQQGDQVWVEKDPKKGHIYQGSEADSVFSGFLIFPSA
human complement protein C1q (human), sequence (P02746 28-253 limits assumed, chain 2 of 3, further chain): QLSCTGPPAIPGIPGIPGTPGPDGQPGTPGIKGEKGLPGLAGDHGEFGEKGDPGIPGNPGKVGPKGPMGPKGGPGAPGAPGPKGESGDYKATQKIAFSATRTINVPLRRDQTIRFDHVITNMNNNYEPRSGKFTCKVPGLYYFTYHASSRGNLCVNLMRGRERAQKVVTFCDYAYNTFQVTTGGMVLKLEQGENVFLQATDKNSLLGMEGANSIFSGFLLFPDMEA
human complement protein C1q (human), sequence (P02747 29-245 limits assumed, chain 3 of 3, further chain): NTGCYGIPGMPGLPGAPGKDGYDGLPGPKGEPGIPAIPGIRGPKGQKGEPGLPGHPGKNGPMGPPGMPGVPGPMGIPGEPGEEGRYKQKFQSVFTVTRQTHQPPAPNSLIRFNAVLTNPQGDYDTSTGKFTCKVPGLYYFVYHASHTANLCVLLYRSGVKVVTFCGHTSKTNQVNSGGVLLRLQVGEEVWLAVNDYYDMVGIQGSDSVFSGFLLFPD

- EC50 (read off the curve): 2 µg/mL
Substance: Rituximab (antibody)
